{"source": "patent US20120164123", "proteins": {"B1": {"name": "arginine-specific mono-ADP-ribosyltransferase-1 (ART1), mART1 released from transfected NMU cells (protein)", "chain": "QSYSISQLDIFSQETPLDMAPASFDDQYAGCLADMTAALPDLNHSEFQANKVYADGWAQANNQWQERRAWGSVWGSLPPSPPGFRDEHGVALLAYTANSPLHKEFNAAVREAGRSRAHYLHHFSFKTLHFLLTEALQLLRSHRSRGCQQVYRGVHGLRFRPAGPGATVRLGGFASASLKNVAAQQFGEDTFFGIWTCLGAPIRGYSFFPEEEEVLIPPFETFQVINTSRPTQGPARIYLRALGKRSTYNCEYIKEKKCRSGPCWLGSS"}}, "target": "human neutrophil peptide-1 (HNP-1)", "sequence (chain, as listed by the source)": "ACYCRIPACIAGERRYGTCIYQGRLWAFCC", "data": [{"protein": "B1", "values": [{"measurement": "ADP-ribosylation of HNP-1 by ART1 in vitro (RP-HPLC and MS of the reaction products)", "result": "HNP-1 was ADP-ribosylated in vitro using purified ART1"}]}]}
